Data: the supplement of paper PMC9170038

Tested on: K4 kissing-loop RNA reporter
Test: apparent KD of K4 kissing-loop reporter; higher = weaker reporter binding
Settings: Eterna round: R107
Procedure: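 RNA-MaP round R107: designed RNA switches with theophylline, tryptophan, arginine or FMN aptamers are transcribed on-chip within common flanks. They are titrated with a labelled K4 kissing-loop RNA reporter in RNA-MaP buffer (100 mM Tris pH 7.5, 80 mM KCl, 4 mM MgCl2), without ligand or with the indicated ligand. Median apparent KD per design.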

[1] = input ligand: theophylline 20 uM
[2] = input ligand: tryptophan 2.4 mM
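Note: bound reporter read as fluorescence of individual clusters on recovered sequencing chips by microscopy, with normalized cluster intensities fitted with a binding model.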

Row | Sequence | apparent KD of K4 kissing-loop reporter (input ligand: FMN 200 uM) [µM] | apparent KD of K4 kissing-loop reporter (input ligand: arginine 13.2 mM) [µM] | apparent KD of K4 kissing-loop reporter (input ligand: none) [µM] | apparent KD of K4 kissing-loop reporter [1] [µM] | apparent KD of K4 kissing-loop reporter [2] [µM]
1 | GGUAGCAUGGCGGCCGCCACUUACUUCAAUAGGAGUGAUGUUCCUAUUACUAGUAGUGAAAUAAUAAGGACCGGGCCAUGCUACC | 0.103 | 0.0879 | 0.0952 | 0.0828 | 0.0968
2 | AACUGGGUUCGUGAUACCAGCUCACACAUGAGUGAUGUUCAUGUAGUGGGCAAAAUGUGGAGCCCUUGGCAGCACUGUGACCACG [XTheo-B2] | 0.0811 | 0.069 | 0.077 | 0.0733 | 0.0785
3 | AGGAUCCGUCGACAAAAGUCGACAUAAACCAAGGAUAUGACGAAAGUCAGAAGGUGGUCAUAAGACCAGUGAUGUUGGUGGAUCC [FmnA 11 #SwitchBubble #K4Late] | 0.984 | 0.268 | 0.467 | 0.309 | 0.379
4 | AGUGGACGUGUCCGGAGUGAUGUUCAGGAUACCAGACACGAAAGUGUCCCUUGGCAGCCGGAGUGAUGUUCCGGCGUUCACUAAA [Omei KL Theo A Exc B v4] | 0.459 | 0.248 | 0.36 | 0.419 | 0.321
5 | AUUUUUUACAGAAGGAGCGUGUUUUUAUAAUCAUUUAUCUUAGCGAGUGAUGUUCGCUUUACACAGGUAGGUCGCUGUUUAUUUA [JR_Nu_ExcArginiB_Sub028] | 0.119 | 0.13 | 0.121 | 0.121 | 0.0857
6 | CAACUACCCGGAAGGAGCGCGGGUGUAAAUCAAAGGGCUUGAGUGAUGUUCAAGCGGAACCCGCAGGUAGGUCGCCGGGAAGCCC [Quaneson] | 0.113 | 0.114 | 0.119 | 0.114 | 0.122
7 | GUGAGGAGUGGUGUUGAUUAGGGAGCGGAAGGAGCGCCGAGGAAGGCAGGUAGGUCGCCGGAUUAUAGUGAUGUUAUGAAGAGGG [ExArg.K] | 0.482 | 0.523 | 0.551 | 0.886 | 0.338
8 | AGUGGACAUGUCUAGAGUGAUGUUCUGGAUACCAGACACGAAAGUGUCCCUUGGCAGCCGGAGUGAUGUUCUGGAGUUCACUAAA [Omei KL Theo A Exc B v8] | 0.612 | 0.296 | 0.55 | 0.485 | 0.436
9 | CUUGUACAAGUGAUGUUUGUUAUAUCCGAAGGAGCGUCGUACUAGACAGGUAGGUCGCGGAUGAAGAUAGUUUUUUUAAUAUCAU [JR_Nu_SSArginiA_Sub028] | 0.687 | 0.474 | 0.761 | 0.648 | 0.533
10 | CCGCGGCAAGCUCCGGAACCCAUAUUCGAUACCAGCCUUAUCACGGGCCCUUGGCAGCGAGCGUUAGUGAUGUUAGCGGCAUGGU [theeternabot_sameState_KL_Theo_A_27] | 0.528 | 0.256 | 0.311 | 0.276 | 0.384
11 | CGAGAAUGUCGACAGUCAUCGGUCCAUGCACGAGGACCGGUACGGCCGCCACUCGAGCGUGGCAGUGAUGUUGCCAGCGCACUAA [KL-XTryp-A14] | 0.0996 | 0.0851 | 0.0863 | 0.086 | 0.1
12 | UAUUGAUUGUCAGGAUAUCGUAAACGAGUGAUGUUCGUAUAUUGACGAUAGUCAAUUCUAUCUGAACGAGAAGGGACAUUAUUUA [JR_SSFMNB_Sub009] | 0.318 | 0.301 | 0.389 | 0.351 | 0.308
13 | UGACUUGCCUGAGGAUAUCUAGGAUAUCCAUAAAAGAAAAUAAUAAUCCAGUGAUGUUGGAGAAGGAGAGAAGGCAGGUAAGUCU [KL-XFMN-B17 #DoubleAptamer #SwitchBubble] | 0.176 | 0.114 | 0.119 | 0.112 | 0.119
14 | AAUAUAGUGAUGUUAUAUAAGGAAAGAAGGCGAGGACCGGUACGGCCGCCACUCGAAAGGUGAGAAGGUGGCGAAGAAGAAAGAA [ExTryptoA.B] | 0.312 | 0.28 | 0.331 | 0.433 | 0.377
15 | CUCGACACGGGAAGGAGCGGUUGCGUGUGCCAGUGAUGUUGGAUCAGCAGACUGCCCGGUAGCCAGGUAGGUCGCCUGUGCUGAG [Esbeescexe] | 0.219 | 0.166 | 0.162 | 0.189 | 0.142
16 | ACUGGGUUGACGAAAGUCAACAAAAGAGAAGGAGCGCACGAAAGUGCAGGUAGGUCGCUCAUCCAGUGAUGUUGGAUCAUCCAGA [#SwitchBubble 17 #K4Late] | 0.444 | 0.679 | 0.626 | 0.392 | 0.305
